Common to all, as to experiment: NanoBRET
Test [1] concerns the target HaloTag-fused and NanoLuc-fused Gag-MA-G2A (NanoBRET pair). Particulars: living cells; n = 6; mean ± SE; WMAA signal subtracted; parent: est. 100.
The target in test [2] is HaloTag-fused and NanoLuc-fused Gag-MA-S9A (NanoBRET pair). The settings on record: living cells; n = 6; mean ± SE; WMAA signal subtracted; parent: est. 100; read off a plot.
Test [3] concerns the target HaloTag-fused and NanoLuc-fused Gag-MA-S9F (NanoBRET pair). Particulars: living cells; n = 6; mean ± SE; WMAA signal subtracted; parent: est. 100; read off a plot.
Test [4] concerns the target HaloTag-fused and NanoLuc-fused Gag-MA-S9I (NanoBRET pair). The settings on record: living cells; n = 6; mean ± SE; WMAA signal subtracted; parent: est. 100; read off a plot.
The target of test [5] is HaloTag-fused and NanoLuc-fused Gag-MA-S9W (NanoBRET pair). Particulars: living cells; n = 6; mean ± SE; WMAA signal subtracted; parent: est. 100; read off a plot.
Test [6] concerns the target HaloTag-fused and NanoLuc-fused Gag-CA-WM184/185AA (NanoBRET pair). Particulars: living cells; n = 6; mean ± SE; WMAA signal subtracted; parent: est. 100; read off a plot.

The source of these data is publication PMC12548442.

Consider “HaloTag-fused Gag and NanoLuc-fused Gag, wild type (NanoBRET pair) G2A”, for which the percent of parent in test [1] is 0%.

For “HaloTag-fused Gag and NanoLuc-fused Gag, wild type (NanoBRET pair) S9A”, the percent of parent in test [2] was found to be 72%.

“HaloTag-fused Gag and NanoLuc-fused Gag, wild type (NanoBRET pair) S9F”: the percent of parent in test [3] came out at 8.6%.

“HaloTag-fused Gag and NanoLuc-fused Gag, wild type (NanoBRET pair) S9I”: in test [4], the percent of parent was determined as 68%.

Consider “HaloTag-fused Gag and NanoLuc-fused Gag, wild type (NanoBRET pair) S9W”, for which, in test [5], the percent of parent turned out to be 42%.

Consider “HaloTag-fused Gag and NanoLuc-fused Gag, wild type (NanoBRET pair) W184A; M185A”, for which the percent of parent in test [6] was 0%.
